What was measured:
Jak2 = Jak2 (UniProt O60674); assay: phosphorylation enrichment, bacterial display (enrichment ratio); higher = better substrate or ligand; peptides without Tyr show the background
EPHB2 = EPHB2 (UniProt P29323); assay: as above
Hck = Hck (UniProt P08631); assay: as above
Fyn = Fyn (UniProt P06241); assay: as above
FGFR3 = FGFR3 (UniProt P22607); assay: as above
c-Src = assay: as above
Fer (mouse) = assay: as above
Fes = Fes (UniProt P07332); assay: as above
AncSZ = assay: as above
MERTK = MERTK (UniProt Q12866); assay: as above
FGFR1 = FGFR1 (UniProt P11362); assay: as above
FGFR1, sequence (P11362 whole entry, looked up): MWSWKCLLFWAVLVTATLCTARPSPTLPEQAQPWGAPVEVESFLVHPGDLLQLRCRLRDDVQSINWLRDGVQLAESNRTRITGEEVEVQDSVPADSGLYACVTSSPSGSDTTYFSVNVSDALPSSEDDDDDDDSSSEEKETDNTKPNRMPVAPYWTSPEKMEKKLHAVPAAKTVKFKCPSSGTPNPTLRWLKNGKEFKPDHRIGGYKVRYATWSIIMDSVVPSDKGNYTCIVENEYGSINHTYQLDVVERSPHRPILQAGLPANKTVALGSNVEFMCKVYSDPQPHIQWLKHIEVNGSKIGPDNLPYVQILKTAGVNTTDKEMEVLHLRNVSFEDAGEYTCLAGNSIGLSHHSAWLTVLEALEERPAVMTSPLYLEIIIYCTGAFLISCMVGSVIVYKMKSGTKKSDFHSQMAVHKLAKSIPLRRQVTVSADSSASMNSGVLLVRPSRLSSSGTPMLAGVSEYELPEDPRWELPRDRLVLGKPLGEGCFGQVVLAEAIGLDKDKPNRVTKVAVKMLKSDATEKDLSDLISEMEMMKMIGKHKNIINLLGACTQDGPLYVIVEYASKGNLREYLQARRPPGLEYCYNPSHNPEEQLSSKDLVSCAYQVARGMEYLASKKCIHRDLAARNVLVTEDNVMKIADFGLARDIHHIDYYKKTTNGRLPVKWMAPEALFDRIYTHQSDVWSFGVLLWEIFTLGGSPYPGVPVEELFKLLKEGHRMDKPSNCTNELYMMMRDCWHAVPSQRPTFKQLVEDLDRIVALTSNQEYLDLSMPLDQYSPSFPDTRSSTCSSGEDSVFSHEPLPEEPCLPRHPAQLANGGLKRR

EPHB1 = EPHB1 (UniProt P54762); assay: as above
EPHB1, sequence (P54762 whole entry, looked up): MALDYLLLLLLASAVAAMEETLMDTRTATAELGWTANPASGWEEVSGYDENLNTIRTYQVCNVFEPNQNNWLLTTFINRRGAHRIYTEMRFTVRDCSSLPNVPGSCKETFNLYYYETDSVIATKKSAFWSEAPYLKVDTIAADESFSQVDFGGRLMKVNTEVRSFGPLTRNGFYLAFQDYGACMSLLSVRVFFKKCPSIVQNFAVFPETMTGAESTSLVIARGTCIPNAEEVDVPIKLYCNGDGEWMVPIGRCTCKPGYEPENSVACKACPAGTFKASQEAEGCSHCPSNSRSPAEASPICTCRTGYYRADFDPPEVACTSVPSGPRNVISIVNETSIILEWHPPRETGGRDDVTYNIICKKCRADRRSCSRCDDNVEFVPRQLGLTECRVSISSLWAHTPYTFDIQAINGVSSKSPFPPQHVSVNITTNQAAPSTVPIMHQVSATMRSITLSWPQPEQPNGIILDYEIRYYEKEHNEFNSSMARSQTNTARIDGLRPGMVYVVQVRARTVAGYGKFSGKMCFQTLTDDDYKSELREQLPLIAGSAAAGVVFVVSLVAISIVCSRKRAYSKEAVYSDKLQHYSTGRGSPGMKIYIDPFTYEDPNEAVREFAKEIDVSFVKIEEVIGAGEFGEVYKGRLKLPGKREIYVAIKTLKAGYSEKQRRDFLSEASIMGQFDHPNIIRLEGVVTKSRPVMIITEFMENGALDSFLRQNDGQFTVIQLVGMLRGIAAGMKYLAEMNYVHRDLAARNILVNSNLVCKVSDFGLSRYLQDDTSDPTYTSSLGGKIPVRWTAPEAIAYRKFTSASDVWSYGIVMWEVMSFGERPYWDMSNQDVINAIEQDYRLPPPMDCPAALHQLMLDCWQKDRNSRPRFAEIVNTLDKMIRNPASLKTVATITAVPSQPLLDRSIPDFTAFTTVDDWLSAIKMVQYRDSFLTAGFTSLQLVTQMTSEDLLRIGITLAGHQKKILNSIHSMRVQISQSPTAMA

c-Abl (mouse) = assay: as above
Grb2 SH2 = Grb2 SH2 (UniProt P62993); assay: SH2 binding enrichment of the phosphorylated peptide, bacterial display (enrichment ratio); higher = better substrate or ligand; peptides without Tyr show the background
Grb2 SH2, sequence (P62993 whole entry, looked up): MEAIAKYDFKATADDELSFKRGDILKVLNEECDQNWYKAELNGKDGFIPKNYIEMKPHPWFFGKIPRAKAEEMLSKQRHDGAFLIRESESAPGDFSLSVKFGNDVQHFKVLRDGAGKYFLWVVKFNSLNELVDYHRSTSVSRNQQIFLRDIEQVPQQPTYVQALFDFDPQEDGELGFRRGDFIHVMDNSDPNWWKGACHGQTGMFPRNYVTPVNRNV

SHP2-C SH2 = assay: as above
c-Src SH2 = assay: as above
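For SH2 binding enrichment of the phosphorylated peptide, bacterial display in this document: peptide library displayed on the E. coli surface as eCPX fusions, selected cells deep-sequenced, score is each peptide's frequency after selection divided by its frequency in the input.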
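For phosphorylation enrichment, bacterial display in this document: 11-residue human phosphosite peptides and single-mutation variants displayed on the E. coli surface, counted by deep sequencing, each peptide's frequency after selection divided by its frequency in the unselected input library; frequency after pTyr selection over input frequency; kinase dosed for 20-30% of maximal phosphorylation in three min.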

Fes, sequence (P07332 whole entry, looked up): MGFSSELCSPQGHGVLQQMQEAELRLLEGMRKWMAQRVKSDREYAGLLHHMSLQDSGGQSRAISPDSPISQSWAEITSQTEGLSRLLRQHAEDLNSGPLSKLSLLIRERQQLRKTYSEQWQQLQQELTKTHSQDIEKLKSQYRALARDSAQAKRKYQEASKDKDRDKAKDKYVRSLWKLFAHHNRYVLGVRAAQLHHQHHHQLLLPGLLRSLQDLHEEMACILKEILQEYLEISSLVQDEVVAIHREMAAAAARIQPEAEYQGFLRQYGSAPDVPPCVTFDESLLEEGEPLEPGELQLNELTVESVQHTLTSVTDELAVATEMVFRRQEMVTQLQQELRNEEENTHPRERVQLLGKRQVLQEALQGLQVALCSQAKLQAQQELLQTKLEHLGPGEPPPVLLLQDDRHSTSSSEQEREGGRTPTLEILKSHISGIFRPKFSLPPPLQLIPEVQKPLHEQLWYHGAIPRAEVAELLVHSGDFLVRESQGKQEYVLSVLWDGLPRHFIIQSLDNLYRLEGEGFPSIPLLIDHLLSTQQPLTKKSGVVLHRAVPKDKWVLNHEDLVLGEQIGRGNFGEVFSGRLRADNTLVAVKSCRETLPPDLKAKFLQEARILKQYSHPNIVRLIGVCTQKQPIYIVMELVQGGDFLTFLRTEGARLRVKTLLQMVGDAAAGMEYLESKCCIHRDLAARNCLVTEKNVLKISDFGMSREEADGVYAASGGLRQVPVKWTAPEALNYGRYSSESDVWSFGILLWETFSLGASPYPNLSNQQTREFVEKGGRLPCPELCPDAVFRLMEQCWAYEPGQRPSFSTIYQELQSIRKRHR
Jak2, sequence (O60674 whole entry, looked up): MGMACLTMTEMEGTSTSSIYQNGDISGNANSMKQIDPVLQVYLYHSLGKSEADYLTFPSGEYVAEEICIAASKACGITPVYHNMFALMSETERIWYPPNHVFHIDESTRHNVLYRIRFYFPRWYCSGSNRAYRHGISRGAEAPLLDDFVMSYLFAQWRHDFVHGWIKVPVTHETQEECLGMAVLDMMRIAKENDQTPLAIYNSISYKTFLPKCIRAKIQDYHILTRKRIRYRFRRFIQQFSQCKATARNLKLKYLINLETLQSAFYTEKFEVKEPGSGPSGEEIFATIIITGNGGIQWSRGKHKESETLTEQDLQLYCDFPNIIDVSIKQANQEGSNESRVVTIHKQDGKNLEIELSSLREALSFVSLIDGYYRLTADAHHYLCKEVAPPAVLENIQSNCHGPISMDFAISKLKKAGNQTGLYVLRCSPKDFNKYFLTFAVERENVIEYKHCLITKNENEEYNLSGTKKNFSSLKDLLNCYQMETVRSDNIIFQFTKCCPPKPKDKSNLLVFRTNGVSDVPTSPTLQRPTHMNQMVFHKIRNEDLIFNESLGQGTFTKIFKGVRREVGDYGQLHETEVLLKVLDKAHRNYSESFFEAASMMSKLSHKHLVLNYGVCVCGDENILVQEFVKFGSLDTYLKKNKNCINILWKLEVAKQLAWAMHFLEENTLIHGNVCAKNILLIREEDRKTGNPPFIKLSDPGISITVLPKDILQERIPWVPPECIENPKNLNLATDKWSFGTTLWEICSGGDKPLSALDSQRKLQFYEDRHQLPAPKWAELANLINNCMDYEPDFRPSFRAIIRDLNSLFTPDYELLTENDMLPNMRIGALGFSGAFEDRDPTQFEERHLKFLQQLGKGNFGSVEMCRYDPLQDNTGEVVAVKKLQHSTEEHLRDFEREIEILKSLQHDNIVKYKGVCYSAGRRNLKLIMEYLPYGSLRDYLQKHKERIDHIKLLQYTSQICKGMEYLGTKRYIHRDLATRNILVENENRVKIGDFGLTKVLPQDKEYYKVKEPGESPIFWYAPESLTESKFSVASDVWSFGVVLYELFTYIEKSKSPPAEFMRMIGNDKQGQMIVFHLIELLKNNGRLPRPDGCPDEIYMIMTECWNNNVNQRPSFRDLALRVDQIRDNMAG
Hck, sequence (P08631 whole entry, looked up): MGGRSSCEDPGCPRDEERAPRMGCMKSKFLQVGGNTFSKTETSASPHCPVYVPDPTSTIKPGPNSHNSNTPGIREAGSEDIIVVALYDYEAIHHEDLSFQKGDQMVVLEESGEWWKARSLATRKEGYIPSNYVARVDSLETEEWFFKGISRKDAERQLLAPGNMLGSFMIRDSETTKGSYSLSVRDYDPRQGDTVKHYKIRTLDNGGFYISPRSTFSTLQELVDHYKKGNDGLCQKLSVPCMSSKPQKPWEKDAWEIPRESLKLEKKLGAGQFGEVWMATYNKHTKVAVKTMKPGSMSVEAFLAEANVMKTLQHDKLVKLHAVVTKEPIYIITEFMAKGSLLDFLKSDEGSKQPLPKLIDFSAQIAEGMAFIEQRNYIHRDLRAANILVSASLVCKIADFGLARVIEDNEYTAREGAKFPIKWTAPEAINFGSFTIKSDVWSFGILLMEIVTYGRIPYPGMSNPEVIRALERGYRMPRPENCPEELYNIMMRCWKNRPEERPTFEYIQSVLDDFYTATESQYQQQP
Fyn, sequence (P06241 whole entry, looked up): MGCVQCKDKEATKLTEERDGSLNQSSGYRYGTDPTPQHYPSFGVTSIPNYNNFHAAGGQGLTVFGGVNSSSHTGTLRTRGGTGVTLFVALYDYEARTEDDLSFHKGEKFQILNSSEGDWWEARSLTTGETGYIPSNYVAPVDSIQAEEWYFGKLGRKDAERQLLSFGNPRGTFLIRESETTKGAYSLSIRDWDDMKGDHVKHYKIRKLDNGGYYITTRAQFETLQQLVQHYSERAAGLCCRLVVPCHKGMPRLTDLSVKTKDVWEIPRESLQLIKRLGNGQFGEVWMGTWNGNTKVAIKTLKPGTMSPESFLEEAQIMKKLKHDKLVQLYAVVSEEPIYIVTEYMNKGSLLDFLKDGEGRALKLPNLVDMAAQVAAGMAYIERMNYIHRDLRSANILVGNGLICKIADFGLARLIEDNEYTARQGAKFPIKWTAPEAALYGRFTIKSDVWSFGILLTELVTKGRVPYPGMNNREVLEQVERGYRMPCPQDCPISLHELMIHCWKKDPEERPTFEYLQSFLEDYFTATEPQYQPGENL

Sequence	phosphorylation enrichment (Jak2)	phosphorylation enrichment (EPHB2)	phosphorylation enrichment (Hck)	phosphorylation enrichment (Fyn)	phosphorylation enrichment (FGFR3)	phosphorylation enrichment (c-Src)	phosphorylation enrichment (Fer (mouse))	phosphorylation enrichment (Fes)	phosphorylation enrichment (AncSZ)	phosphorylation enrichment (MERTK)	phosphorylation enrichment (FGFR1)	phosphorylation enrichment (EPHB1)	phosphorylation enrichment (c-Abl (mouse))	SH2 binding enrichment (Grb2 SH2)	SH2 binding enrichment (SHP2-C SH2)	SH2 binding enrichment (c-Src SH2)
SDTGQYQCLVF [AXL_Y115]	0.969	0.9	3.09	2.03	1.65	1.64	2.7	1.26	1.33	1.77	1.65	0.867	1.86	0.582	0.563	0.449
RAKLFYQEVPA [METTL11B_Y76]	0.547	1.9	1.67	0.716	2.39	0.385	1.64	1.02	1.95	6.6	2.88	2.91	0.513	0.651	0.789	0.992
RQEEEYKRLSE [SFSWAP_Y133]	2.31	1.15	0.888	1.02	1.22	1.2	0.892	2.21	2.53	0.804	0.693	0.574	1.43	1.02	0.539	0.469
QISRDYGVLLE [PRDX3_Y172]	0.862	0.731	0.751	0.624	0.69	0.679	0.637	1.04	0.922	0.64	0.523	0.617	0.635	0.845	0.683	0.576
ETKRPYTVILI [SBDS_Y128]	1.01	0.527	0.481	0.457	0.722	0.458	1.16	1.15	1.06	0.479	0.582	0.57	0.825	0.838	0.877	1.05
LSDGPYSSPYE [EPOR_Y485_N487S]	1.2	0.95	0.739	0.882	1.61	1.09	0.831	1.39	2.3	0.523	0.421	1.2	1.18	0.808	0.762	3.98
TYQYKYPEGSS [TGM4_Y440_E437Q]	0.743	0.56	0.455	0.567	0.63	0.494	0.509	0.905	0.85	0.429	0.425	0.548	0.691	0.834	0.586	0.631
LTERDYSFVTT [ACTG2_Y199_G198D]	1.27	3.51	1.62	1.93	4.74	0.977	2.82	1.6	2.56	1.26	7.67	2.38	0.888	0.792	1.37	0.678
PVQDAYQKVVA [HBB_Y131_A129D]	0.425	0.308	0.353	0.366	0.429	0.386	0.493	0.453	0.526	0.379	0.397	0.445	0.421	0.983	0.956	1.03
IKKLIYVFLVI [JAGN1_Y42_H44Y_YF]	0.736	0.547	0.393	0.462	0.797	0.424	0.454	1.1	0.884	0.547	0.716	0.556	0.701	2	1.79	1.22
AATTAYSKPKR [MAP3K7_Y405]	0.425	0.264	0.384	0.281	0.37	0.354	0.317	0.563	0.404	0.302	0.337	0.275	0.509	0.935	0.712	0.693
ALVLQYLRVPL [F9_Y371]	1.6	0.5	0.536	0.455	0.662	0.39	0.55	1.02	1.03	0.378	0.582	0.61	0.62	1.8	1.74	1.66
SPYAVYLFFTF [RPGRIP1_Y826_R827L]	0.783	0.487	0.569	0.617	0.87	0.748	0.628	1.08	0.928	0.533	0.446	0.47	0.797	1.07	0.71	0.542
YSTPPYLLEAA [BRIP1_Y921_S919P]	1.04	0.711	1.61	1.56	0.935	1.6	1.09	1.17	1.77	3.63	1.16	0.664	1.8	0.862	0.811	1.08
RDGDRYFKGIV [DCX_Y64_N60D]	0.609	0.427	0.437	0.308	0.491	0.382	0.316	1.1	0.427	0.374	0.574	0.343	0.485	1.16	0.606	0.537
IRTIDYRFTVC [IDS_Y497_W502C_YF]	1.14	0.579	0.581	0.444	0.832	0.469	0.518	1.38	1.22	0.396	0.561	0.787	0.952	0.85	0.739	0.407
TNQVIYLNPPI [DYNC1H1_Y970]	0.706	4.73	1.45	0.62	2.94	0.743	0.473	0.77	0.849	3.71	3.51	7.69	13.9	0.819	0.99	0.459

Sequence	phosphorylation enrichment (Jak2)	phosphorylation enrichment (EPHB2)	phosphorylation enrichment (Hck)	phosphorylation enrichment (Fyn)	phosphorylation enrichment (FGFR3)	phosphorylation enrichment (c-Src)	phosphorylation enrichment (Fer (mouse))	phosphorylation enrichment (Fes)	phosphorylation enrichment (AncSZ)	phosphorylation enrichment (MERTK)	phosphorylation enrichment (FGFR1)	phosphorylation enrichment (EPHB1)	phosphorylation enrichment (c-Abl (mouse))	SH2 binding enrichment (Grb2 SH2)	SH2 binding enrichment (SHP2-C SH2)	SH2 binding enrichment (c-Src SH2)
IKNSGYISRYL [EIF2AK3_Y585]	0.538	0.406	0.33	0.4	0.531	0.448	0.376	0.711	0.558	0.404	0.513	0.443	0.558	1.08	1.01	0.706
NLNGKYYKPRA [ANGPTL3_Y417_N418Y]	0.617	0.324	0.312	0.241	0.445	0.406	0.354	0.57	0.474	0.304	0.408	0.404	0.61	1.3	0.974	0.861
FPPTHYIRRMP [SLC4A11_Y820_V824M_YF]	0.597	0.661	0.601	0.561	0.502	0.543	0.445	0.981	0.919	0.524	0.498	0.528	0.718	0.982	0.821	0.506
SLNEEYAKNKT [MSH2_Y563_T564A]	0.791	0.579	0.362	0.413	0.538	0.45	0.318	0.877	0.765	0.43	0.472	0.394	0.674	0.949	0.759	0.482
EYQLPYYNTVP [BMPR1A_Y457_M460T]	5.82	1.19	1.93	1.42	5.15	5.66	1.94	1.05	4.46	2.31	7.09	0.966	2.54	9.47	0.872	6.88
EVVGRYSVHNA [MLH1_Y183]	0.698	0.451	0.488	0.487	0.513	0.497	0.405	0.717	0.633	0.421	0.457	0.437	0.589	0.668	0.597	0.42
MTYMFYRENLR [NLRP14_Y443_V441M]	1.1	1	1.97	1.48	0.753	2.72	0.456	1.19	1.33	0.608	0.628	0.948	0.751	1.15	0.749	0.721
CTTIHSNFMCN [TP53_Y234_Y234S_YF]	0.729	0.555	0.43	0.416	0.55	0.454	0.429	0.832	0.695	0.405	0.508	0.448	0.507	0.924	0.914	0.988
LPPGTYPSDFT [UNC5B_Y511_A516T]	0.571	0.536	0.613	0.82	0.85	0.697	0.403	1.25	1.58	1.04	0.717	0.694	1.78	0.885	0.533	0.445
FLAVGYHKPRI [IDS_Y225_H229R]	0.502	0.44	0.374	0.426	0.5	0.305	0.402	0.838	0.638	0.272	0.379	0.477	0.481	1.61	1.6	1.64
ADDSFYTARSA [ZAP70_Y493_YF]	0.877	0.534	1.01	0.711	0.904	0.707	0.451	0.993	0.822	0.681	0.55	0.597	0.561	0.883	1.55	0.419
EQAERYDDMAA [YWHAG_Y20]	0.87	0.51	0.501	0.537	0.737	0.426	0.501	1.03	1.22	0.407	0.547	0.508	0.653	0.966	0.617	1.3
ALEKTYNTYRS [B4GALNT2_Y538]	0.497	0.349	0.438	0.517	0.439	0.925	0.35	0.658	0.568	0.312	0.391	0.336	0.433	0.819	0.612	0.448
FLAVGYHMPHI [IDS_Y225_K227M]	0.862	0.403	0.51	0.395	0.562	0.334	0.402	0.833	0.761	0.313	0.485	0.346	1.33	1.1	1.18	3.36
YQKDVYDIPPS [NEDD9_Y177]	0.614	3.2	3.38	3.66	0.499	3.26	0.611	0.735	0.954	7.34	0.528	0.788	0.734	0.852	0.531	0.532
ADLAKYICENR [ALB_Y287_Q292R]	0.928	0.406	0.447	0.427	0.691	0.467	0.498	0.946	0.84	0.45	0.469	0.537	1.36	0.817	0.79	0.424

Source: the supplement of paper PMC10065799, “High-throughput profiling of sequence recognition by tyrosine kinases and SH2 domains using bacterial peptide display” (eLife, 2023)
